The values that follow come from the supplement of paper PMC10724198.

± gives the standard deviation of the averaged measurements.
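Also: PSI is a weighted mean of sequencing reads over stability bins, variants kept only with over 10 reads, mCherry proximal and sfGFP distal, peptide attached via GGGS linker.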

The test system of this data set is Saccharomyces cerevisiae. The data set is described as follows: protein stability index of tFT-peptide fusion (C-terminal peptide) (PSI (0-1 scale)); higher = more stable (slower turnover). The following applies: genetic background: wild type; temperature: 30 C.
As to LFGIGFFSFICS, the protein stability index was 0.537 ± 0.074. LFGTGVRCGVCS displayed a protein stability index of 0.637 ± 0.092. For LFHHLAPRPAPP the value was 0.698 ± 0.051; for LFIGLAAVHAHY, 0.687 ± 0.11; for LFLFAPRPPPPP, 0.717 ± 0.03. For LFLSIRRFRCRL the value was 0.58 ± 0.057; for LFPALFWPTSTL, 0.743 ± 0.032; for LFQKRAIGGAWL, 0.742 ± 0.039. For LFRFFPWPPPPA the value was 0.682 ± 0.034. Turning to LFRPTPPSFAPP, the protein stability index came to 0.683 ± 0.048. With LFSARRKSPTSL the figure was 0.708 ± 0.058.

The sequence LFSGPYRYKAYM came in with a protein stability index of 0.7273 ± 0.0061.

Consider LFSSLLLPNALR, for which the protein stability index amounted to 0.69 ± 0.038. For LFVHTPCPFEVR the value was 0.673 ± 0.023; for LFWFVSLWGGFA, 0.529 ± 0.073; for LFYYLFRYFFPP, 0.548 ± 0.0094. As to LGAWAGGGASSG, the protein stability index stood at 0.704 ± 0.03. For LGEDRVKYQKLW the value was 0.7234 ± 0.007; for LGFGCVYCGEAW, 0.689 ± 0.033; for LGFLSSLLCRSL, 0.779 ± 0.068.

Sequence LGGASNGCSTLK had a protein stability index of 0.718 ± 0.091. With LGGAVLSRFGAR the figure was 0.738 ± 0.047; with LGGGGGVECRVG, 0.672 ± 0.058. In turn, LGGGGRGFAGRK yielded a protein stability index of 0.618 ± 0.029. For LGGGSGCVEGGL the value was 0.713 ± 0.082; for LGGRNNRQMSSG, 0.678 ± 0.11; for LGGVGSSGDVVA, 0.648 ± 0.017.

LGGWWVWSWGRG displayed a protein stability index of 0.66 ± 0.023. The sequence LGHVHLIGDIVC registered a protein stability index of 0.7042 ± 0.0039. With LGKAVSDMDETH the figure was 0.687 ± 0.026; with LGLMSSCFSMWC, 0.657 ± 0.15; with LGLSLPCRGFTL, 0.682 ± 0.0073. With LGMMIPQILDFV the figure was 0.586 ± 0.014; with LGNFENDEGSQK, 0.735 ± 0.026.

In turn, LGRCSTLLYCGP showed a protein stability index of 0.669 ± 0.03. With LGRGRGGPLSGG the figure was 0.7014 ± 0.003; with LGRPCGGVAGEQ, 0.637 ± 0.014. In turn, LGRSGCRGGYVG displayed a protein stability index of 0.622 ± 0.014. For LGRSRYADVQFC the value was 0.77 ± 0.021; for LGSGGLMEPWCG, 0.644 ± 0.11; for LGSGSTQGWAGG, 0.667 ± 0.035. For LGVGGGGRGVRG the value was 0.728 ± 0.12; for LGVGGRWVAPGA, 0.678 ± 0.094; for LGVLGGWRRFGV, 0.72 ± 0.031.

Turning to LGVLRALLGEGM, the protein stability index was determined as 0.688 ± 0.033.

In the case of LGVWGGGRGVRG, the protein stability index came out at 0.7206 ± 0.0051.

LHAHTAPAHPKT yielded a protein stability index of 0.689 ± 0.0087. For LHGDLLFSVYVL the value was 0.597 ± 0.083; for LHHPPSTHRGPD, 0.711 ± 0.004. For LHLRPPHPPLPS the value was 0.717 ± 0.015.

As to LHLVRLEGEECL, the protein stability index was 0.677 ± 0.027. Take LHLYPSLLLPGL: the protein stability index is 0.742 ± 0.074. With LHPLHSSSPRVS the figure was 0.704 ± 0.026; with LHPPHPPPSPPP, 0.626 ± 0.1; with LHPPLTLTFYLS, 0.555 ± 0.0089. Regarding LHPPRPTPKHPA, the protein stability index is 0.608 ± 0.0093. For LHPSPPSPLPPP the value was 0.723 ± 0.028; for LHPSPQRHKTLQ, 0.743 ± 0.017; for LHRLRLASRAAL, 0.719 ± 0.068. For LHSPATAPHRPP the value was 0.67 ± 0.022. Sequence LHSRLPPCRRHV yielded a protein stability index of 0.674 ± 0.021.

In the case of LHTLPLVLSLPA, the protein stability index worked out at 0.534 ± 0.025. For LHTSTRPLPPTS, the protein stability index was found to be 0.675 ± 0.067.

As to LIFLPPSPLPLS, the protein stability index was found to be 0.709 ± 0.085. For LIGICCDSGSHC the value was 0.691 ± 0.057; for LIIRTWEQILSP, 0.692 ± 0.058; for LILLTVGSPRSG, 0.686 ± 0.013. On to LIPLVFAPSLVL, for which the protein stability index was found to be 0.769 ± 0.093. With LIQKANGRIRRG the figure was 0.763 ± 0.02; with LIRRTECPRSTS, 0.6782 ± 0.0048; with LISLERRGVAGR, 0.657 ± 0.043. With LIVFSFLSCPVP the figure was 0.5234 ± 0.0013; with LIVWAGACGVSR, 0.611 ± 0.014.

As to LKGVNPVNLHEL, the protein stability index was 0.66 ± 0.039. With LKKSEKLSNKII the figure was 0.644 ± 0.041.

In the case of LKPLRTWLSGSA, the protein stability index is 0.719 ± 0.019. For LKPPEDPCASRV the value was 0.677 ± 0.021; for LKYEGPKYHMKR, 0.691 ± 0.061. As to LLAGGDVSGVGV, the protein stability index is 0.695 ± 0.015. For LLCHLSPSSSPI the value was 0.786 ± 0.068.
